This data set can be described thus: soluble on expression in E. coli; label from the status in PepcDB or PDB records.
Take “MKICTMGLGYIGLPTSAMFAKYGTEVVGVDIHQKVVDKLNNGEIHIEEPGLGEVVKEVVANGKFRASLTPEEADAFIISVPTPNHDDEHKSCDLSYVLTATEKVLPFVKKGNVIIVESTIAPRSMDDYVKPLVEEAGFTVGEDIYLVHCPERVLPGQILHELVHNNRIVGGVTPACAEAGARVYGVFVEGEIIKTNAKTAEMSKLMENTFRDVNIALANELTKVCNSLDINVLDVIEMANKHPRVNLHYPGPGVGGHCLAVDPYFIVAKAPELANIIKLSRETNVSMPHYVTEKVKELLAGVENPKVAAFGVTYKGNVDDMRESPAMDVIDLIRNEGITVSAHDPHVESDFFELHSAEEAVKDAHLILVLTDHDEFKTMNYDSLAPYMAKTVVFDTRNCVQAVSTGEMKIINFGTLYEALNKNVMMV”: the “soluble on expression in E. coli” value is given as “not soluble”.

Consider “MVAEITAPKSMGKVLGYNFSKVTAGNASVILTSSMSVDANGETNFERALTDMDMRIPSGIRTKKTVFHCSLNPHPDDRLTTEQLQDIAREYMEKMGYGKQPYIVFKHNDIAREHIHIVSLRVDSYGKKLPYKFEARRSKRITDELERKYGLIPSGNRRSRHETHAENVLKTADVKQGDVRRQIAAVVRAVLKRYAFRSLGEMNLLLARYHIVAEEVRKEYKGKRYDGLVYAITDDAGEKRMIPLHAGKIGRGTGYAAVVRHFEKSKALIKEKAPMLRNAIIEVMQSSPDKERFSEEMKKRGIDVHIRQNEQGRIYGITFISDEAGIAANGSRLGKGYSAHVFNDYFLGGENPFLDYRRQEIRELPTVRSAPEMLPEAETGDDCYDEPVRTDESGIVVHGIDYKELAFQRKLRNRRHKQDITGKRRT”, for which the “soluble on expression in E. coli” value is given as “not soluble”.

With “MSVCLFLRFCSLRVRCRRLMCRPGEIIHIMWSALAWRWCAVMLTGSQRYAFCNDRFHNRKITRLRNNFMPNILPTDLCANTPTLAIHDNRGFAIRTLAYNRRDHNETIGELISRNRYNASGQLIASRDPRLEVDNFRYQYSLSGVPLRTDSVDSGSTLQLADSAGRTVLTLDAHHTRRWVEYETGEHSLGRPLSYHEQAKGGLKTVTDRFFYATNSEQDKSGNLNGQCVRHYDSAGLQALINQSIIGVPLQQQRRLLTNPKGPVDWFGEKENWGARLSEQPFVSHSTTDALGQLLTQTDAKGHIQRMAYNRAGQLIGSWLTIKNSAEQVILRSLTYSAAGQKLREESGNGVITEYRYEPQTQRLIGIKTTRPAKKDRPTRLQDLRYDYDPVGNILAIHNDAEATRFYRNQKIVPETTYRYDALYQLIEATGREADTNGIQNSQLPALASLNDSNQFVNYTRSYHYDRAGNLLKIQHTGASQYSTHITVSDSSNHGIQQQEGITARDIRSQFDAAGNQQQLQPGQPLRWNSRNQLQQVEPVPRNDGISDSESYLYDGGGSRVVKTSLHKTHNAIQTRSVIYLAGLELRSQYNGNNLTEDFQVITVGAAGRAQVRVLHWERGQPVDIVNDQLRYSFDNHLGSALIELDSDGDIISQEEYYPFGGTAVLASRNTVEAKYKTVRYSGKERDATGLYYYGYRYYQPWLGRWLSADPAGTIDGLNLYRMVRNNPVGLMDGDGLMTDKLLAKHEANFAKKNISSMAELKSEIEKLGLLPADSKQLFLHLNGGESDDEPSGSSGSSGSSEILENTSPHKIKNFHFISEINLATMPRPYYKDFSSTEDMLESAERLKAYGSIDTLLTLDLTSEDIPEFTSILADKGINYIAEKQYEIIDYFSEDELSSENIDRIVNMIKTIQNNNHKVGIHCAAGNGRSGLIATAMIINKKYTQSRINSFEEKNKLKEIIDKNKNEINVDAITYDAMKLVRKTNPFAGERTTDIKAAREYSRYLYSKQNR”, the “soluble on expression in E. coli” value is given as “not soluble”.

As for “LINQAEVDIYDIPVALITEQYMAYIHTMQELQLDVASEYLVMAATLLQIKSKMLLPKQEEIFDETFEYEEEDPREELMFRLIEYRRYKEAAQELKEKEGERSQVHTRLPDNLDDYLTEEERQRQSIQGVTLFDMLAAYQKLLKRRAYSRPRTSTVKVEEYSIDERMTDILMDLEKCNGKCRFQDLFV”, the “soluble on expression in E. coli” value is “not soluble”.

Consider “AAPTATVTPSSGLSDGTVVKVAGAGLQAGTAYWVAQSAWVDTGVYASNPADISSVTADANGSASTSLTVRRSFEGFLWDGTRWGTVDCTTAACHVTLRDALSNGPEGVAISF”, for which the “soluble on expression in E. coli” value is given as “soluble”.

With “GPRRTRTTFTSSQIAELEQHFLQGRYLTAPRLADLSAKLALGTAQVKIWFKNRRRRHKIQSDQHKDQS”, the “soluble on expression in E. coli” value was “soluble”.

As for “MGHHHHHHSHMKANLSLLRRPGEKTYTQRCRLFVGNLPADITEDEFKRLFAKYGEPGEVFINKGKGFGFIKLESRALAEIAKAELDDTPMRGRQLRVRFATHAAALSVRNLSPYVSNELLEEAFSQFGPIERAVVIVDDRGRSTGKGIVEFASKPAARKAFERCSEGVFLLTTTPRPVIVEPLEQLDDEDGLPEKLAQKNPMYQKE”, the “soluble on expression in E. coli” value is reported as “soluble”.

On to “MAVKQPVPKDPAKVERIMHAAMHTFAVSGYRDAKTDVIASAATVSKGLLFHYYGSKQRLYLATVQLATDTIIATINQQVFDVPDDLVTLMVRSARYKAAFGKDHPDEMKVLIDAYGALERLPVKIQAQMKILYTKSMTISREMISQVLDKMTLRADVDRDATIALIMGVYNQIFMEFQTYMRENHQVESMADIEWVVSRAKTYMGILEHGFMAADLDDQQ”, for which the “soluble on expression in E. coli” value is given as “not soluble”.

Turning to “SNAMANIKIRQETPTAFYIKVHDTDNVAIIVNDNGLKAGTRFPDGLELIEHIPQGHKVALLDIPANGEIIRYGEVIGYAVRAIPRGSWIDESMVVLPEA”, the “soluble on expression in E. coli” value is reported as “soluble”.

For the sequence “MKTYHLNNDIIVTQEQLDHWNEQLIKLETPQEIIAWSIVTFPHLFQTTAFGLTGLVTIDMLSKLSEKYYMPELLFIDTLHHFPQTLTLKNEIEKKYYQPKNQTIHVYKPDGCESEADFASKYGDFLWEKDDDKYDYLAKVEPAHRAYKELHISAVFTGRRKSQGSARSQLSIIEIDELNGILKINPLINWTFEQVKQYIDANNVPYNELLDLGYRSIGDYHSTQPVKEGEDERAGRWKGKAKTECGIHEASRFAQFLKQDA”, the “soluble on expression in E. coli” value is on record as “soluble”.

As to “MAKTGMYVGLDIGTTSVKVVVAEYIEGQMNIIGVGNAKSDGLNRGIVVDIDQTVQAIQRAVRQAEEKAGIQIKSVNVGLPANLLEVESCQGMIAVSSESKEITDEDVRNVASAALVRSTPPERQIVAILPQDFTVDGFEGIKDPRGMLGVRMEMFGVVYTGPKTIIHNIRKCVEKAGLGINELVITPLALTETILTDGEKDFGTIVIDMGGGQTTTSVIHDKQLKFTHVNQEGGEFITKDISIVLNTSFNNAEALKINYGDAYPERTSANEEFPVDVIGKSEPVRVDERYLSEIIEARVEQILRKSKEVLDEIDAFELPGGVVLTGGAASMPGIVDLAQEIFEANVKLYVPNHMGLRNPVFANVISIVEYSAQLNDIYHIAKYAIPGEKSKPAQSVAVQQEVRYDTYAEQPQEEYEEFNERESGEKVTGKIKDFFSNIFD”, the “soluble on expression in E. coli” value is recorded as “not soluble”.

As to “MKKYYVRCKDSKGENASLVIEALSPEHAKEQAYEVYEVGDIYNVSLGEGKSKNCLDRKYSPYIKNDNGKAITIFSLEHHHHHH”, the “soluble on expression in E. coli” value is on record as “not soluble”.

Turning to “MTTPAPVPRITVLLPVYNGEQYLREALDSLLTQTYRNFSLLAVDDGSTDSSLEILRSIKDPRLSVKVNPRNRGLINTLNESLDLIQSEYVARMDADDIATPYRLEEQLAFMDAHPDVGLCGGYYERFTDTESIVVRPPTTHEDISYALIFDNVMAHNTVMFRRSVLERYRLRYDPAFAYAEDYELWVRFARYSRLANLPRVLVRYRFHPANTSSRFRHEQQIAAAKIRHIHRTNLGLEPRPGDAALHRQLFDMRFEGDLPELTAAGIWLSKLYRVGVRRCRQNPVSTFLEFNKLWYSACGRLADHGLKVFAQFLRQPFGFLGNPAYTLKLAYRCWRRIRIALEHHHHHH”, the “soluble on expression in E. coli” value was “not soluble”.

As for “MGSDKIHHHHHHMSNVDRAEIAKFEALAHRWWDRESEFKPLHEINPLRVNWIDERVSLAGKKVLDVGCGGGILSEAMALRGATVTGIDMGEAPLAVAQLHQLESGVQVEYRQITAEALAEEMPEQFDVVTCLEMLEHVPDPSSVIRACYRMVKPGGQVFFSTINRNPKAYLLAIVGAEYILKMLPRGTHDFKKFIRPSELGAWSRDAGLQVKDIIGLTYNPLTKHYKLNSDVDVNYMIQTLREE”, the “soluble on expression in E. coli” value was “not soluble”.

On to “MGSDKIHHHHHHMPLSSVSRPSTQIQAQSTGKIFIIGLPRTGTTSVCVALLEQGLKVAHQGFTQQSFYQADAIADAPVFSDFKQLDGLFPGAKFVYLSRDIAPWIISMQMLLGRMLIHLDEHTGRFHPIMKRSFNHSFKLNLVTNPFDEVHLKQCYLEHQQTVEEYFTGRNDLLKININQVGSLNRLLEFIELAPQDLASSIKSAPLNFPHLNIGRNVASWDEYKHPNKVSANLSGPNKRKFFDYTLS”, for which the “soluble on expression in E. coli” value is reported as “not soluble”.

Regarding “GSMIDKSAFVHPTAIVEEGASIGANAHIGPFCIVGPHVEIGEGTVLKSHVVVNGHTKIGRDNEIYQFASIGEVNQDLKYAGEPTRVEIGDRNRIRESVTIHRGTVQGGGLTKVGSDNLLMINAHIAHDCTVGNRCILANNATLAGHVSVDDFAIIGGMTAVHQFCIIGAHVMVGGCSGVAQDVPPYVIAQGNHATPFGVNIEGLKRRGFSREAITAIRNAYKLIYRSGKTLDEVKPEIAELAETYPEVKAFTDFFARSTRGLIR”, the “soluble on expression in E. coli” value is reported as “soluble”.

Take “MSLNKLVDAHCHVITDPDNTFCGDDGGSQGTLRCVMSSNPYDWNNLKKLAGRSTSKNDICVGFGVHPWYSHLFYVGSRRDKVSHYQDVLEYKNEEQFDSLVQVLPEPLDLEEYIKREFNDTLVSVIGEIGLDKLFRLPANGFYMQNEKARLTTVKVKLSHQETVFRRFCRLARHTSKPISIHDVKCHGKLNDICNEELLTYHSVKICLHSYTGSKETLLGQWLKKFPPDRIFVSLSKWINFKDPEEGDALVRSLPSTCILTETDYPIDNPDPSYQKALTEQLQYLNAQIARAWDETLDASQAALRVYENFQKFIKEGHHHHHH”: the “soluble on expression in E. coli” value was “not soluble”.

“MRAIGLLEFKEITRGVYAADVMLKATPVELLLIDNICPGKLIVLIEGEVSAVKNAISRGKEVFSEGVIEEVVLTNPHPSLSTVFPRKKQSKKLNYNSIGIIETLSVSSAIKAADKAAKGANVEIIDIKIARFLGGKAIVVLGGEISAVKVAIDAGISAVQKGKLVSSTVVANINEKLLEMWV”: the “soluble on expression in E. coli” value is “soluble”.

For “MAEASSLVGKLETEVEIKASAKKFHHMFTERPHHVSKATPDKIHGYGKLTVGKNKIEAVDPEKNLITFKVLEGDLMNEYKSFAFTLQVTPKQGESGSIAHWHLEYEKISEEVAHPETLLQFCVEISKEIDEHLLAEE”, the “soluble on expression in E. coli” value is listed as “soluble”.

On to “GIFPAEIEDLAQKQVAVDLTQPSRFLLKVLAGANIGAEFHLDSGKTYIVGSDPQVADIVLSDMSISRQHAKIIIGNDNSVLIEDLGSKNGVIVEGRKIEHQSTLSANQVVALGTTLFLLVDYAAPS”, for which the “soluble on expression in E. coli” value is given as “soluble”.

Consider “MGSDKIHHHHHHMFKTAVGHSNDPDSLSAIEEVLQQCVSSLGGDIPKAGILFSAIDFEHALILQQIHQFFPGIELIGGTTDGEISSVLEFQQDSITLMLFCSDEVEINAGVGRKVSVDPIAVTKQAVEQAKAKTTETPRLCLTHPESLTISGVSILHGLKLALGQNVPIFGGLAGDQSRYQNTYQFFQTEVLSDSVPILLFSGTILFSHGVASGWHPIGQISQVTKVDKNILYEIDGKPALDFYHHYLGLLPPSMEYPLAVFDQNRDNFYIRAPIAYNQDSGSITFFADIPDRAVIQIAEACYEDILAASKASFMNALNNYPGAEPSAVLFFSCVARRQILGTRAKEEYQNTKLCLTYHLPGCGFYSYGEIAPIDGMSQTQFHNETFVTLILGTR”, for which the “soluble on expression in E. coli” value is “not soluble”.

For the origin of these results see the DeepSol protein solubility set.
